# Source: the supplement of paper PMC10724198
# ± gives the standard deviation of the averaged measurements.
# Legend:
# Saccharomyces cerevisiae [1] = test: protein stability index of tFT-peptide fusion (C-terminal peptide) (PSI (0-1 scale)); higher = more stable (slower turnover)
# Description: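 MPS profiling in S. cerevisiae of the tFT-X12 degron library: putative degron peptides plus stable controls, 12 aa, fused to the C-terminus of a sfGFP-mCherry timer. Cells are FACS-sorted into 8 mCherry/sfGFP bins and deep-sequenced. PSI runs from 0 (unstable) to 1 (stable). Backgrounds are wild type, das1Δ and doa10Δ at 30 °C, and wild type, das1Δ, cdc34-1 and cdc53-1 at 37 °C; 2-3 technical replicates each.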
# Saccharomyces cerevisiae [2] = test: as above; conditions: genetic background: wild type; temperature: 30 C
# [3] = genetic background: cdc34-1, temperature: 37 C
# [4] = genetic background: cdc53-1, temperature: 37 C
# [5] = genetic background: das1 deletion, temperature: 30 C
# [6] = genetic background: das1 deletion, temperature: 37 C
# [7] = genetic background: doa10 deletion, temperature: 30 C
# [8] = genetic background: wild type, temperature: 30 C
# [9] = genetic background: wild type, temperature: 37 C
# 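Further: PSI is a weighted mean of sequencing reads over stability bins, variants kept only with over 10 reads, mCherry proximal and sfGFP distal, peptide attached via GGGS linker.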
sequence,measurement,setting,value
DGYLFKGIWFFV,protein stability index,Saccharomyces cerevisiae [1]; [3],0.645 ± 0.011
same,protein stability index,Saccharomyces cerevisiae [1]; [4],0.7326 ± 0.0039
same,protein stability index,Saccharomyces cerevisiae [1]; [5],0.617 ± 0.033
same,protein stability index,Saccharomyces cerevisiae [1]; [6],0.738 ± 0.036
same,protein stability index,Saccharomyces cerevisiae [1]; [7],0.145 ± 0.0041
same,protein stability index,Saccharomyces cerevisiae [1]; [8],0.163 ± 0.022
same,protein stability index,Saccharomyces cerevisiae [1]; [9],0.349 ± 0.0098
same,protein stability index,Saccharomyces cerevisiae [2],0.189 ± 0.031
DKVTLLRRCKQY,protein stability index,Saccharomyces cerevisiae [1]; [3],0.606 ± 0.03
same,protein stability index,Saccharomyces cerevisiae [1]; [4],0.726 ± 0.009
same,protein stability index,Saccharomyces cerevisiae [1]; [5],0.634 ± 0.026
same,protein stability index,Saccharomyces cerevisiae [1]; [6],0.701 ± 0.015
same,protein stability index,Saccharomyces cerevisiae [1]; [7],0.173 ± 0.029
same,protein stability index,Saccharomyces cerevisiae [1]; [8],0.206 ± 0.03
same,protein stability index,Saccharomyces cerevisiae [1]; [9],0.311 ± 0.012
same,protein stability index,Saccharomyces cerevisiae [2],0.202 ± 0.12
DLRGLGRFRISH,protein stability index,Saccharomyces cerevisiae [1]; [3],0.6886 ± 0.0067
same,protein stability index,Saccharomyces cerevisiae [1]; [4],0.741 ± 0.021
same,protein stability index,Saccharomyces cerevisiae [1]; [5],0.64 ± 0.031
same,protein stability index,Saccharomyces cerevisiae [1]; [6],0.7181 ± 0.0055
same,protein stability index,Saccharomyces cerevisiae [1]; [7],0.486 ± 0.0072
same,protein stability index,Saccharomyces cerevisiae [1]; [8],0.503 ± 0.024
same,protein stability index,Saccharomyces cerevisiae [1]; [9],0.677 ± 0.017
same,protein stability index,Saccharomyces cerevisiae [2],0.572 ± 0.11
DLVGRETRMRLN,protein stability index,Saccharomyces cerevisiae [1]; [3],0.6744 ± 0.0063
same,protein stability index,Saccharomyces cerevisiae [1]; [4],0.70449 ± 0.00037
same,protein stability index,Saccharomyces cerevisiae [1]; [5],0.633 ± 0.039
same,protein stability index,Saccharomyces cerevisiae [1]; [6],0.7221 ± 0.0045
same,protein stability index,Saccharomyces cerevisiae [1]; [7],0.202 ± 0.01
same,protein stability index,Saccharomyces cerevisiae [1]; [8],0.263 ± 0.022
same,protein stability index,Saccharomyces cerevisiae [1]; [9],0.526 ± 0.097
same,protein stability index,Saccharomyces cerevisiae [2],0.383 ± 0.0088
EGREGGGRGEVL,protein stability index,Saccharomyces cerevisiae [1]; [3],0.455 ± 0.011
same,protein stability index,Saccharomyces cerevisiae [1]; [4],0.589 ± 0.04
same,protein stability index,Saccharomyces cerevisiae [1]; [5],0.471 ± 0.029
same,protein stability index,Saccharomyces cerevisiae [1]; [6],0.496 ± 0.03
same,protein stability index,Saccharomyces cerevisiae [1]; [7],0.482 ± 0.024
same,protein stability index,Saccharomyces cerevisiae [1]; [8],0.479 ± 0.011
same,protein stability index,Saccharomyces cerevisiae [1]; [9],0.472 ± 0.013
FSQGFRSPSECL,protein stability index,Saccharomyces cerevisiae [1]; [3],0.712 ± 0.03
same,protein stability index,Saccharomyces cerevisiae [1]; [4],0.764 ± 0.014
same,protein stability index,Saccharomyces cerevisiae [1]; [5],0.63 ± 0.016
same,protein stability index,Saccharomyces cerevisiae [1]; [6],0.765 ± 0.036
same,protein stability index,Saccharomyces cerevisiae [1]; [7],0.647 ± 0.011
same,protein stability index,Saccharomyces cerevisiae [1]; [8],0.655 ± 0.023
same,protein stability index,Saccharomyces cerevisiae [1]; [9],0.7608 ± 0.0072
FVVVVVWVSRGL,protein stability index,Saccharomyces cerevisiae [1]; [3],0.174 ± 0.0059
same,protein stability index,Saccharomyces cerevisiae [1]; [4],0.399 ± 0.05
same,protein stability index,Saccharomyces cerevisiae [1]; [5],0.214 ± 0.036
same,protein stability index,Saccharomyces cerevisiae [1]; [6],0.423 ± 0.008
same,protein stability index,Saccharomyces cerevisiae [1]; [7],0.172 ± 0.029
same,protein stability index,Saccharomyces cerevisiae [1]; [8],0.196 ± 0.048
same,protein stability index,Saccharomyces cerevisiae [1]; [9],0.383 ± 0.023
GGRREWCRGGGV,protein stability index,Saccharomyces cerevisiae [1]; [3],0.635 ± 0.11
same,protein stability index,Saccharomyces cerevisiae [1]; [4],0.746 ± 0.034
same,protein stability index,Saccharomyces cerevisiae [1]; [5],0.555 ± 0.029
same,protein stability index,Saccharomyces cerevisiae [1]; [6],0.695 ± 0.03
same,protein stability index,Saccharomyces cerevisiae [1]; [7],0.544 ± 0.0089
same,protein stability index,Saccharomyces cerevisiae [1]; [8],0.546 ± 0.015
same,protein stability index,Saccharomyces cerevisiae [1]; [9],0.708 ± 0.03
RWCLVWGGVWGV,protein stability index,Saccharomyces cerevisiae [1]; [3],0.593 ± 0.03
same,protein stability index,Saccharomyces cerevisiae [1]; [4],0.68 ± 0.025
same,protein stability index,Saccharomyces cerevisiae [1]; [5],0.494 ± 0.029
same,protein stability index,Saccharomyces cerevisiae [1]; [6],0.674 ± 0.02
same,protein stability index,Saccharomyces cerevisiae [1]; [7],0.486 ± 0.013
same,protein stability index,Saccharomyces cerevisiae [1]; [8],0.5 ± 0.017
same,protein stability index,Saccharomyces cerevisiae [1]; [9],0.645 ± 0.011
SSLRATLLIRAV,protein stability index,Saccharomyces cerevisiae [1]; [3],0.543 ± 0.023
same,protein stability index,Saccharomyces cerevisiae [1]; [4],0.564 ± 0.011
same,protein stability index,Saccharomyces cerevisiae [1]; [5],0.44 ± 0.019
same,protein stability index,Saccharomyces cerevisiae [1]; [6],0.584 ± 0.0032
same,protein stability index,Saccharomyces cerevisiae [1]; [7],0.352 ± 0.025
same,protein stability index,Saccharomyces cerevisiae [1]; [8],0.371 ± 0.032
same,protein stability index,Saccharomyces cerevisiae [1]; [9],0.5171 ± 0.0041
VLLCGRMVVVEW,protein stability index,Saccharomyces cerevisiae [1]; [3],0.0831 ± 0.0095
same,protein stability index,Saccharomyces cerevisiae [1]; [4],0.163 ± 0.0037
same,protein stability index,Saccharomyces cerevisiae [1]; [5],0.163 ± 0.01
same,protein stability index,Saccharomyces cerevisiae [1]; [6],0.143 ± 0.011
same,protein stability index,Saccharomyces cerevisiae [1]; [7],0.196 ± 0.032
same,protein stability index,Saccharomyces cerevisiae [1]; [8],0.153 ± 0.014
same,protein stability index,Saccharomyces cerevisiae [1]; [9],0.132 ± 0.021
WVFYAVRWRTWN,protein stability index,Saccharomyces cerevisiae [1]; [3],0.254 ± 0.015
same,protein stability index,Saccharomyces cerevisiae [1]; [4],0.44 ± 0.0092
same,protein stability index,Saccharomyces cerevisiae [1]; [5],0.311 ± 0.037
same,protein stability index,Saccharomyces cerevisiae [1]; [6],0.54 ± 0.017
same,protein stability index,Saccharomyces cerevisiae [1]; [7],0.0632 ± 0.0063
same,protein stability index,Saccharomyces cerevisiae [1]; [8],0.066 ± 0.018
same,protein stability index,Saccharomyces cerevisiae [1]; [9],0.061 ± 0.0063
YLCVLASLSSTF,protein stability index,Saccharomyces cerevisiae [2],0.591 ± 0.022
YLFVRTGYRCKW,protein stability index,Saccharomyces cerevisiae [2],0.681 ± 0.033
YLGFRADVVFGK,protein stability index,Saccharomyces cerevisiae [2],0.712 ± 0.063
YLGFRVACPMLA,protein stability index,Saccharomyces cerevisiae [2],0.501 ± 0.036
YLGWLYQKCGTV,protein stability index,Saccharomyces cerevisiae [2],0.639 ± 0.056
YLKVNDELERRR,protein stability index,Saccharomyces cerevisiae [2],0.695 ± 0.05
YLRACDPPAVHR,protein stability index,Saccharomyces cerevisiae [2],0.67 ± 0.024
YLRGRCSSLSLR,protein stability index,Saccharomyces cerevisiae [2],0.698 ± 0.036
YLSPPLLPSFPL,protein stability index,Saccharomyces cerevisiae [2],0.728 ± 0.021
YLSVLQLRCFPA,protein stability index,Saccharomyces cerevisiae [2],0.659 ± 0.019
YLTNIHQRVLLP,protein stability index,Saccharomyces cerevisiae [2],0.659 ± 0.031
YLVKSCCNKDNV,protein stability index,Saccharomyces cerevisiae [2],0.659 ± 0.029
YLVPPLQPHSPA,protein stability index,Saccharomyces cerevisiae [2],0.7305 ± 0.0056
YLVRENLFSRLV,protein stability index,Saccharomyces cerevisiae [2],0.466 ± 0.07
YMAGPAQGRDGS,protein stability index,Saccharomyces cerevisiae [2],0.668 ± 0.013
YNANEKTINKDK,protein stability index,Saccharomyces cerevisiae [2],0.693 ± 0.063
YNYADVCTNESP,protein stability index,Saccharomyces cerevisiae [2],0.7 ± 0.022
YPCPPLLISSPP,protein stability index,Saccharomyces cerevisiae [2],0.709 ± 0.051
YPPLSYSFCHRP,protein stability index,Saccharomyces cerevisiae [2],0.637 ± 0.072
YPSQLGPSVPLS,protein stability index,Saccharomyces cerevisiae [2],0.703 ± 0.039
YPTCPPPSARRV,protein stability index,Saccharomyces cerevisiae [2],0.58 ± 0.025
YQGERGAIGVIF,protein stability index,Saccharomyces cerevisiae [2],0.605 ± 0.013
YRAHAYPYVPRS,protein stability index,Saccharomyces cerevisiae [2],0.682 ± 0.027
YRALRRAFENKI,protein stability index,Saccharomyces cerevisiae [2],0.633 ± 0.028
YRCVQKEIVQRY,protein stability index,Saccharomyces cerevisiae [2],0.693 ± 0.056
YRDSLLATNFFS,protein stability index,Saccharomyces cerevisiae [2],0.694 ± 0.056
YREIVKQTENKR,protein stability index,Saccharomyces cerevisiae [2],0.673 ± 0.0083
YRPLEQLLSLSH,protein stability index,Saccharomyces cerevisiae [2],0.651 ± 0.08
YSFFTLCLSLPA,protein stability index,Saccharomyces cerevisiae [2],0.557 ± 0.025
YSHPCLSCREAH,protein stability index,Saccharomyces cerevisiae [2],0.749 ± 0.057
YSIKSTVTYSVH,protein stability index,Saccharomyces cerevisiae [2],0.574 ± 0.066
YSLASRVVNFCA,protein stability index,Saccharomyces cerevisiae [2],0.497 ± 0.012
YSLLSAHLVPIA,protein stability index,Saccharomyces cerevisiae [2],0.614 ± 0.027
YSLVKITHGRKK,protein stability index,Saccharomyces cerevisiae [2],0.684 ± 0.015
YSSFRSVNWVFP,protein stability index,Saccharomyces cerevisiae [2],0.6838 ± 0.0033
YSSLLLPPLLLF,protein stability index,Saccharomyces cerevisiae [2],0.621 ± 0.025
YSTYGGGYFMAF,protein stability index,Saccharomyces cerevisiae [2],0.668 ± 0.031
YTLMEERTKKDN,protein stability index,Saccharomyces cerevisiae [2],0.742 ± 0.068
YTMGGSLSVSLD,protein stability index,Saccharomyces cerevisiae [2],0.817 ± 0.16
YTPLLAHRGCCC,protein stability index,Saccharomyces cerevisiae [2],0.695 ± 0.029
YVPTPSRPRRNR,protein stability index,Saccharomyces cerevisiae [2],0.718 ± 0.066
YYPLLLASQLPI,protein stability index,Saccharomyces cerevisiae [2],0.735 ± 0.0041
YYRLLACQRPSR,protein stability index,Saccharomyces cerevisiae [2],0.679 ± 0.027
